Common to all, as to experiment: SPR
One test deals with LTF-Fc (human, UniProt P02788, biotin on the AviTag (as SPR ligand)).
Another test concerns the target T1, ICAM5 ECD-Fc (human, UniProt Q9UMF0 32-835, biotin on the AviTag (as SPR ligand)).
T1 sequence: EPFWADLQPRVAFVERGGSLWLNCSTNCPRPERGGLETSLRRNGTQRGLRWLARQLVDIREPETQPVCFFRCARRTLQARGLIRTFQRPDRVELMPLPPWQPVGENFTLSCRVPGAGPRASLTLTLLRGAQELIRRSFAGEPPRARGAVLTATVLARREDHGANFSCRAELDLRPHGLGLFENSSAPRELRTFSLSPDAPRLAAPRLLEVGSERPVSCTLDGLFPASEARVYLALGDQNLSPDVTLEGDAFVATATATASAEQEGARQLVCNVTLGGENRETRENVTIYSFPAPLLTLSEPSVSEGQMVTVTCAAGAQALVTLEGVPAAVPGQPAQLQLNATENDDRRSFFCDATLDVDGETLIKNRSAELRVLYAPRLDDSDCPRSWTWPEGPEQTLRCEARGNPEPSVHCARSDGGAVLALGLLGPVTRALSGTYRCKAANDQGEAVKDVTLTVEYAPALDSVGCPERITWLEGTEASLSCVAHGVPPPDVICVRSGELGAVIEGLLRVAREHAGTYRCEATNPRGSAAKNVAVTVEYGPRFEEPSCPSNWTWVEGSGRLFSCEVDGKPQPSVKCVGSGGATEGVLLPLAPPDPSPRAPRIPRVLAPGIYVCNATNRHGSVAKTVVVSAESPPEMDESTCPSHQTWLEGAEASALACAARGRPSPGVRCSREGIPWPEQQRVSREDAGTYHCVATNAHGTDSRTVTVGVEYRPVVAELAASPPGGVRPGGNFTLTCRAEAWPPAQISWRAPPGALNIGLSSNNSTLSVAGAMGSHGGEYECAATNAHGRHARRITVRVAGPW

The target of another test is T2, PTPRD ECD-Fc (human, UniProt P23468 21-1265).
T2 sequence: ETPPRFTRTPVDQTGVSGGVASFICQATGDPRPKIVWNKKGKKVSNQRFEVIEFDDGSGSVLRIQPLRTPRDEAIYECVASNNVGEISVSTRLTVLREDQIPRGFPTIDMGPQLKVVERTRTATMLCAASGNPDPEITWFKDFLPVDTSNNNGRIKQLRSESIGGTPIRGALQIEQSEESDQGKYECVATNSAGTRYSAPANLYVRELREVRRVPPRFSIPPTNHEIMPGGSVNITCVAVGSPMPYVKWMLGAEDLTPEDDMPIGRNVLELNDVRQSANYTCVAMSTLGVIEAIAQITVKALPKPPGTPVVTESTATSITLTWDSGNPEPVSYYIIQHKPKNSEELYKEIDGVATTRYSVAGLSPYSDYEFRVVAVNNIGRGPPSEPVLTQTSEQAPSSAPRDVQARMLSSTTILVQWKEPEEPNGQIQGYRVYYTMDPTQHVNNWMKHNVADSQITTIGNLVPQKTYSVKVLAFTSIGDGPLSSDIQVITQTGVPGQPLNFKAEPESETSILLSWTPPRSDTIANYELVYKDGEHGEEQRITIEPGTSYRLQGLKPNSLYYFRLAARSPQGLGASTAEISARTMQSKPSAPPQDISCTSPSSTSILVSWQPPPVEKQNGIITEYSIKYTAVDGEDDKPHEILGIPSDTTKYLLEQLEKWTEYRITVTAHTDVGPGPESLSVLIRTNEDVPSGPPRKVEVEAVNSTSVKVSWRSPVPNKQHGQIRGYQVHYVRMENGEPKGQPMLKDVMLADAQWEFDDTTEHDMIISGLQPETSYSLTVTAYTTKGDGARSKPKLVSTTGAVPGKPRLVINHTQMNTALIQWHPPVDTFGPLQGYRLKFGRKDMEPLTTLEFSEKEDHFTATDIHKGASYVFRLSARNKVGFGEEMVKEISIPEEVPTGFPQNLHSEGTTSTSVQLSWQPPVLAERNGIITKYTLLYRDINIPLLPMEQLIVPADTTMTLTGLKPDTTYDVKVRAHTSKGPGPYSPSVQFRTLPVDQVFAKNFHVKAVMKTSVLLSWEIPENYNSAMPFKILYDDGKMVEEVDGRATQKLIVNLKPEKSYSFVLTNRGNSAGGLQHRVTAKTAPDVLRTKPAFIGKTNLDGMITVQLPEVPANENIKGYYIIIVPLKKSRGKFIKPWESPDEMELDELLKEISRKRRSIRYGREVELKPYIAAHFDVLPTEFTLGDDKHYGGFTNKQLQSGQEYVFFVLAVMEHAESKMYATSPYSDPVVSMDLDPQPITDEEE

A further test concerns the target T3, PTPRF ECD-Fc (human, UniProt P10586 30-1263).
T3 sequence: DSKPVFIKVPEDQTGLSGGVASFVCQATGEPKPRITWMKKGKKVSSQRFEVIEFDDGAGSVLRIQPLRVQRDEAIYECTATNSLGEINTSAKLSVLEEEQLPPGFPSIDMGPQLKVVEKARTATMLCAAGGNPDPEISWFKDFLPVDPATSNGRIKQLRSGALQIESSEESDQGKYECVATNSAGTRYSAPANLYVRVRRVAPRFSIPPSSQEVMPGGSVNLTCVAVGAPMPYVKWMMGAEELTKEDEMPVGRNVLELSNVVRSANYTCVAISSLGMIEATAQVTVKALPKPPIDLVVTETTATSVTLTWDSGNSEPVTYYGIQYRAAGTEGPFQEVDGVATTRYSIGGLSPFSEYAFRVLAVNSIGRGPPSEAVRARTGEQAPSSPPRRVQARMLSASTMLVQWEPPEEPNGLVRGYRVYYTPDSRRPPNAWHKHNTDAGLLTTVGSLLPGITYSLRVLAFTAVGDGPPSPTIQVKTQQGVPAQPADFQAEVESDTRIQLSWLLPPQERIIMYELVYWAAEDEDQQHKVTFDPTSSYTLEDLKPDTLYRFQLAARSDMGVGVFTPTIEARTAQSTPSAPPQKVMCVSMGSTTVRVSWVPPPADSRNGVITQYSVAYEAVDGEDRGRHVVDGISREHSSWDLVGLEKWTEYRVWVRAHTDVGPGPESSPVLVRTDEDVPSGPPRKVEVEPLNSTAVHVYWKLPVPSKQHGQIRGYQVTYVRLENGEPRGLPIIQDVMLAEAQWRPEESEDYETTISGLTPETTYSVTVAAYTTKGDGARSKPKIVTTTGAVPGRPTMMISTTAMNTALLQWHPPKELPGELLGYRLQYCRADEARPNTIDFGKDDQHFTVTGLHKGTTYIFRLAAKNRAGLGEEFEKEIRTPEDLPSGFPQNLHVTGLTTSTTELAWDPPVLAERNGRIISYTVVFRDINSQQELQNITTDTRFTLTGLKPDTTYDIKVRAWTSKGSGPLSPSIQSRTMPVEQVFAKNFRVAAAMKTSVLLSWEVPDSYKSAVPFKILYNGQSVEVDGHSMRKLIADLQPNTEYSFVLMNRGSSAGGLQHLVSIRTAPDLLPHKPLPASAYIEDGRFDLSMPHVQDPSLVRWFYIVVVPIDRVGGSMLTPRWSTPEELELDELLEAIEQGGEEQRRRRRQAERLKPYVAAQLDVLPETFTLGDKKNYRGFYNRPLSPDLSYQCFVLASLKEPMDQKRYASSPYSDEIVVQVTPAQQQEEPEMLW

The target in the next test is T4, PTPRS ECD-Fc (human, UniProt Q13332 30-1282).
T4 sequence: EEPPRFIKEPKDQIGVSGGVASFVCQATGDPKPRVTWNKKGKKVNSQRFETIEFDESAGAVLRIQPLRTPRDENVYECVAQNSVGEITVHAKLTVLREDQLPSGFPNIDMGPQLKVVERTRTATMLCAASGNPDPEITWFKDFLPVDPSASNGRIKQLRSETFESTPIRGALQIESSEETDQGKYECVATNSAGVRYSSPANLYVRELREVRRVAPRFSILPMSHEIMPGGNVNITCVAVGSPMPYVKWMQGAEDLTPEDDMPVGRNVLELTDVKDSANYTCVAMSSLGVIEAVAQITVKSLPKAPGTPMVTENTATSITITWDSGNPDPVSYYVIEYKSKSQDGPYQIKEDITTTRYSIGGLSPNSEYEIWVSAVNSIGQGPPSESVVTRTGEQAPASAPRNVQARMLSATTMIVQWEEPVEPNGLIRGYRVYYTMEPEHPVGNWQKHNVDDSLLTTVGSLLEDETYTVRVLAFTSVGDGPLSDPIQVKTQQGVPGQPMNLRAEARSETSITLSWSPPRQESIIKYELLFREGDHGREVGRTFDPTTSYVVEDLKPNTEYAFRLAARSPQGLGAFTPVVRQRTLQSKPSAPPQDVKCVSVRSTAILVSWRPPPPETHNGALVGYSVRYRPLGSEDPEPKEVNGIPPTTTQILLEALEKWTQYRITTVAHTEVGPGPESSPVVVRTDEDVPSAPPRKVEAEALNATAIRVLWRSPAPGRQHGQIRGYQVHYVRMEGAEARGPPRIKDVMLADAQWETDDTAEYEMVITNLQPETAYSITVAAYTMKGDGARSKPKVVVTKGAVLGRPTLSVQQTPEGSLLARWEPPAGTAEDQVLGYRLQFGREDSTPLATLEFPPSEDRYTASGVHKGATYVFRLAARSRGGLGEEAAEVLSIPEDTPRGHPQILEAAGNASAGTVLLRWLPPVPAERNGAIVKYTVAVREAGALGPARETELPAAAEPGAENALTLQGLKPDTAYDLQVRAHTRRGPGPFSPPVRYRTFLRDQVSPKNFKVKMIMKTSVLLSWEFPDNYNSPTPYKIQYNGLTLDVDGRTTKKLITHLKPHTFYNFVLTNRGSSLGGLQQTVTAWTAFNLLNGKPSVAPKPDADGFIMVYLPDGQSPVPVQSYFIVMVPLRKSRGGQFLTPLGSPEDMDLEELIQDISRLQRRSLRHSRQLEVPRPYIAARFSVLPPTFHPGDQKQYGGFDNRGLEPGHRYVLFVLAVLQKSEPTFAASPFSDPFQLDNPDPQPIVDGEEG

Sequence of LTF-Fc (P02788 20-710): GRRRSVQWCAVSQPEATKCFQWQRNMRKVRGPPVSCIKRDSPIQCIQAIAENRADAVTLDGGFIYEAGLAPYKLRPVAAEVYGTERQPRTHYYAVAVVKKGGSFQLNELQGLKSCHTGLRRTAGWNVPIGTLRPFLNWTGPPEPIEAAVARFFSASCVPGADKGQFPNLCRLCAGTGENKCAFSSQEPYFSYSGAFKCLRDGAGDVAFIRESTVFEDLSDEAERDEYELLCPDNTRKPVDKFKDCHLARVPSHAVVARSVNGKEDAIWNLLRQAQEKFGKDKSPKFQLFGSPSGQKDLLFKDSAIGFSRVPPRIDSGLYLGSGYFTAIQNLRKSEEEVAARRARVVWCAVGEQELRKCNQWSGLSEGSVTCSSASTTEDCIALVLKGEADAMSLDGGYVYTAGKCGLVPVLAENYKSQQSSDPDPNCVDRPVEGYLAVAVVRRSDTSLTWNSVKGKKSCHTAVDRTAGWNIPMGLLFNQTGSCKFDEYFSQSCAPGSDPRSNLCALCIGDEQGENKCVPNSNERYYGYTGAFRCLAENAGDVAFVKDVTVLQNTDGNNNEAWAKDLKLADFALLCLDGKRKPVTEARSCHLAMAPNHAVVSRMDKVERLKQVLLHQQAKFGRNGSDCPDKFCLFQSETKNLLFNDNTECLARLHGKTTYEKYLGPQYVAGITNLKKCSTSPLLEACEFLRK

B1: human ISLR2 ECD-Fc (Fc fusion)
chain: SCPEPCACVDKYAHQFADCAYKELREVPEGLPANVTTLSLSANKITVLRRGAFADVTQVTSLWLAHNEVRTVEPGALAVLSQLKNLDLSHNFISSFPWSDLRNLSALQLLKMNHNRLGSLPRDALGALPDLRSLRINNNRLRTLAPGTFDALSALSHLQLYHNPFHCGCGLVWLQAWAASTRVSLPEPDSIACASPPALQGVPVYRLPALPCAPPSVHLSAEPPLEAPGTPLRAGLAFVLHCIADGHPTPRLQWQLQIPGGTVVLEPPVLSGEDDGVGAEEGEGEGDGDLLTQTQAQTPTPAPAWPAPPATPRFLALANGSLLVPLLSAKEAGVYTCRAHNELGANSTSIRVAVAATGPPKHAPGAGGEPDGQAPTSERKSTAKGRGNSVLPSKPEGKIKGQGLAKVSILGETETEPEEDTSEGEEAEDQILADPAEEQRCGNGDPSRYVSNHAFNQSAELKPHVFELGVIALDVAEREARVQLTPLAARWGPGPGGAGGAPRPGRRPLRLLYLCPAGGGAAVQWSRVEEGVNAYWFRGLRPGTNYSVCLALAGEACHVQVVFSTKKELPS
modifications: biotin on the AviTag (as SPR ligand)
Turning to B1, the binding result in the test with LTF-Fc and with ICAM5 ECD-Fc was “binds” each time.

B2: SALM3 ECD-Fc (Fc fusion)
chain: CPLPCVCQNLSESLSTLCAHRGLLFVPPNVDRRTVELRLADNFIQALGPPDFRNMTGLVDLTLSRNAITRIGARAFGDLESLRSLHLDGNRLVELGTGSLRGPVNLQHLILSGNQLGRIAPGAFDDFLESLEDLDLSYNNLRQVPWAGIGAMPALHTLNLDHNLIDALPPGAFAQLGQLSRLDLTSNRLATLAPDPLFSRGRDAEASPAPLVLSFSGNPLHCNCELLWLRRLARPDDLETCASPPGLAGRYFWAVPEGEFSCEPPLIARHTQRLWVLEGQRATLRCRALGDPAPTMHWVGPDDRLVGNSSRARAFPNGTLEIGVTGAGDAGGYTCIATNPAGEATARVELRVLALPHGGNSSAEGGRPGPSDIAASARTAAEGEGTLESEPAVQVTEVTATSGLVSWGPGRPADPVWMFQIQYNSSEDETLIYRIVPASSHHFLLKHLVPGADYDLCLLALSPAAGPSDLTATRLLGCAHFSTLPASPLCHALQAHVLGGTL
modifications: biotin on the AviTag (as SPR ligand)
Consider B2, for which the binding result in the test with PTPRD ECD-Fc, in the test with PTPRF ECD-Fc and with PTPRS ECD-Fc was “binds” in each case.

B3: SALM5 ECD-Fc (Fc fusion)
chain: QICPKRCVCQILSPNLATLCAKKGLLFVPPNIDRRTVELRLADNFVTNIKRKDFANMTSLVDLTLSRNTISFITPHAFADLRNLRALHLNSNRLTKITNDMFSGLSNLHHLILNNNQLTLISSTAFDDVFALEELDLSYNNLETIPWDAVEKMVSLHTLSLDHNMIDNIPKGTFSHLHKMTRLDVTSNKLQKLPPDPLFQRAQVLATSGIISPSTFALSFGGNPLHCNCELLWLRRLSREDDLETCASPPLLTGRYFWSIPEEEFLCEPPLITRHTHEMRVLEGQRATLRCKARGDPEPAIHWISPEGKLISNATRSLVYDNGTLDILITTVKDTGAFTCIASNPAGEATQIVDLHIIKLPHLLNSTNHIHEPDPGSSDISTSTKSGSNTSSSNGDTKLSQDKIVVAEATSSTALLKFNFQRNIPGIRMFQIQYNGTYDDTLVYRMIPPTSKTFLVNNLAAGTMYDLCVLAIYDDGITSLTATRVVGCIQFTTEQDYVRCHFMQSQFLGGTM
modifications: biotin on the AviTag (as SPR ligand)
For B3, the binding result with PTPRD ECD-Fc, with PTPRF ECD-Fc and in the test with PTPRS ECD-Fc was “binds” each time.
